Measured values as given in patent US20210115102.

ALU30-6, sequence (chain, as listed by the source): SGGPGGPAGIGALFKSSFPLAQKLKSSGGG
ALU30-5, sequence (chain, as listed by the source): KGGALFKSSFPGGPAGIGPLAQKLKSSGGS
ALU30-8, sequence (chain, as listed by the source): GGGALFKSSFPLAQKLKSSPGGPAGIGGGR
ALU30-2, sequence (chain, as listed by the source): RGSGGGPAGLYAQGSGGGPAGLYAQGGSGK
ALU30-13, sequence (chain, as listed by the source): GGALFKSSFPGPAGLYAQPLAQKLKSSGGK
ALU30-10, sequence (chain, as listed by the source): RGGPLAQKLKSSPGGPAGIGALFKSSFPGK
Hepsin, recombinant human, sequence (chain, as listed by the source): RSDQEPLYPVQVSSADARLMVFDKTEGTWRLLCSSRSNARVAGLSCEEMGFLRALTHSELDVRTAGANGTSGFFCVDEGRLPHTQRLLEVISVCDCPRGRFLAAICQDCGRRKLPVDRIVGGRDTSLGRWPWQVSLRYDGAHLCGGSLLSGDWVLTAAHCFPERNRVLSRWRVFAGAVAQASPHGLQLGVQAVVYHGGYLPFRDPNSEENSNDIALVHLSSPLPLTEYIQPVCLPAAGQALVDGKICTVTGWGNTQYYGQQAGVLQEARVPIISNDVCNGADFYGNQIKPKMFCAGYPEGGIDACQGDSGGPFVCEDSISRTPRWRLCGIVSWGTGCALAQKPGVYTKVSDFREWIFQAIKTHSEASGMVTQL
ALU30-18, sequence (chain, as listed by the source): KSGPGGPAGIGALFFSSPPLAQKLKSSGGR
Factor Xa, recombinant human, sequence (chain): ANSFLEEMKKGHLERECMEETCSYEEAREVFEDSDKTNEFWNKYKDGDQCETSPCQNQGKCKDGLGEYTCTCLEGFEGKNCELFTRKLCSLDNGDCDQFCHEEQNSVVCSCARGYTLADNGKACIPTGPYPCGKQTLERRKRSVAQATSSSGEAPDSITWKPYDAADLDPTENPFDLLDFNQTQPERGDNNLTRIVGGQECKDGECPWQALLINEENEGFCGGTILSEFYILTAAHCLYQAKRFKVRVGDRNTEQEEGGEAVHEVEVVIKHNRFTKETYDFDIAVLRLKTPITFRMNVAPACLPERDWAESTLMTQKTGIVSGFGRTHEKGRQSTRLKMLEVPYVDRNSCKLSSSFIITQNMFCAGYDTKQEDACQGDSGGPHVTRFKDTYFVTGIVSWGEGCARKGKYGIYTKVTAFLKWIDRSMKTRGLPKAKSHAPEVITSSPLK
ALU30-9, sequence (chain, as listed by the source): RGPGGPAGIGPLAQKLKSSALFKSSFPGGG
ALU30-19, sequence (chain, as listed by the source): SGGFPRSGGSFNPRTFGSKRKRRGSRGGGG
ALU30-7, sequence (chain, as listed by the source): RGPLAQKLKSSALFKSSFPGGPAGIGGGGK
ALU30-17, sequence (chain, as listed by the source): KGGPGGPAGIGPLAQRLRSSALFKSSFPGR
ALU30-1, sequence (chain, as listed by the source): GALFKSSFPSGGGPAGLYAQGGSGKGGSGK
ALU30-15, sequence (chain, as listed by the source): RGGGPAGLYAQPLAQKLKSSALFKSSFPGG
ALU30-12, sequence (chain, as listed by the source): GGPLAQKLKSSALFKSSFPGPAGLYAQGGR
MMP-9, recombinant human, sequence (chain, as listed by the source): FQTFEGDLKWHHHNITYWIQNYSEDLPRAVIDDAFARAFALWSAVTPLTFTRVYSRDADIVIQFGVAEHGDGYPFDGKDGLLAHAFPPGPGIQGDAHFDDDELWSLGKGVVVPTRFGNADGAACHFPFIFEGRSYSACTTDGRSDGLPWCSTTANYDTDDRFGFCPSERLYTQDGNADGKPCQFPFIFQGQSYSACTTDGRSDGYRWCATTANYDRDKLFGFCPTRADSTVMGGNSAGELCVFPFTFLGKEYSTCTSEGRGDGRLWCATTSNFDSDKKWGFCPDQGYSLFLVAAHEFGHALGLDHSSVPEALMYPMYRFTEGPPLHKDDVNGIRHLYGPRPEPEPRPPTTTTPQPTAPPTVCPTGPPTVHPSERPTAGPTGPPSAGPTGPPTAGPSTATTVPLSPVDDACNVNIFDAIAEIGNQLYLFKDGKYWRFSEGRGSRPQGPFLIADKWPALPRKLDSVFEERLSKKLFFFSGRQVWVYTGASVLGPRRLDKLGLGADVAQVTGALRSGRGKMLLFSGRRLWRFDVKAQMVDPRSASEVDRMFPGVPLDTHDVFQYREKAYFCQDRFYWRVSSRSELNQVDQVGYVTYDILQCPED
ALU30-14, sequence (chain, as listed by the source): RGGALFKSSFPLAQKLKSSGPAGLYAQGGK
ALU30-4, sequence (chain, as listed by the source): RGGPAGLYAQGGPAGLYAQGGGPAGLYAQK
ALU30-3, sequence (chain, as listed by the source): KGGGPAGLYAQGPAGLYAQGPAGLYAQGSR
ALU30-16, sequence (chain, as listed by the source): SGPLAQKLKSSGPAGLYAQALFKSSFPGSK
ALU30-11, sequence (chain, as listed by the source): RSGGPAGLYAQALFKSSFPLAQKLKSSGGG

Substance	30-mer substrate degradation (MSP-MS) (ALU30-15)	30-mer substrate degradation (MSP-MS) (ALU30-5)	30-mer substrate degradation (MSP-MS) (ALU30-4)	30-mer substrate degradation (MSP-MS) (ALU30-3)	30-mer substrate degradation (MSP-MS) (ALU30-13)	30-mer substrate degradation (MSP-MS) (ALU30-14)	30-mer substrate degradation (MSP-MS) (ALU30-7)	30-mer substrate degradation (MSP-MS) (ALU30-10)	30-mer substrate degradation (MSP-MS) (ALU30-6)	30-mer substrate degradation (MSP-MS) (ALU30-9)	30-mer substrate degradation (MSP-MS) (ALU30-1)	30-mer substrate degradation (MSP-MS) (ALU30-8)	30-mer substrate degradation (MSP-MS) (ALU30-12)	30-mer substrate degradation (MSP-MS) (ALU30-2)	30-mer substrate degradation (MSP-MS) (ALU30-19)	30-mer substrate degradation (MSP-MS) (ALU30-17)	30-mer substrate degradation (MSP-MS) (ALU30-18)	30-mer substrate degradation (MSP-MS) (ALU30-11)	30-mer substrate degradation (MSP-MS) (ALU30-16)	also measured
MMP-9, recombinant human	The next most efficient substrates contained the pair of motifs where MMP14_1 was followed directly by ADAM17_2.	The FAPα_1 motif was not cleaved by MMP9, however, when followed either by the ADAM17_2 motif or the spacing residues GG.	The most efficient MMP9 substrates were those that bore three-repeats of the MMP14_1 motif.	The most efficient MMP9 substrates were those that bore three-repeats of the MMP14_1 motif.	The next most efficient substrates contained the pair of motifs where MMP14_1 was followed directly by ADAM17_2.	The slowest peptides bear the MMP14_1 motif near the C-terminus of the 30-mer peptide.	The FAPα_1 motif was not cleaved by MMP9, however, when followed either by the ADAM17_2 motif or the spacing residues GG.	the FAPα_1 motif was also cleaved within the peptides bearing FAPα_1 directly followed by the CTSL1_1 motif at PGGPAG|GALF (SEQ ID NO: 247); these were lower efficiency cleavages	the FAPα_1 motif was also cleaved within the peptides bearing FAPα_1 directly followed by the CTSL1_1 motif at PGGPAG|GALF (SEQ ID NO: 247); these were lower efficiency cleavages	The FAPα_1 motif was not cleaved by MMP9, however, when followed either by the ADAM17_2 motif or the spacing residues GG.	The single or double MMP14_1 motif-bearing peptides were next in the order.	The FAPα_1 motif was not cleaved by MMP9, however, when followed either by the ADAM17_2 motif or the spacing residues GG.	The slowest peptides bear the MMP14_1 motif near the C-terminus of the 30-mer peptide.	The single or double MMP14_1 motif-bearing peptides were next in the order.						product formation at individual bonds (MSP-MS) (ALU30-1): the specific cleavage of the Alu30-2 peptide was more efficient than the Alu30-1 peptide; product formation at individual bonds (MSP-MS) (ALU30-2): the specific cleavage of the Alu30-2 peptide was more efficient than the Alu30-1 peptide
Hepsin, recombinant human															Alu30-19 was cleaved at all three motifs within the first 15 min of the reaction	The ADAM17_1 motif was less efficiently cleaved than ADAM17_2	the alternate CTSL1_2 motif was also cleaved at a much slower rate than CTSL1_1			cleavage efficiency of 30-mer library peptides (ALU30-15): it had slightly higher hepsin susceptibility; apparent catalytic efficiency (ALU30-19): The authentic peptide Alu30-19, as well as the top cleaved peptides Alu30-8,-9, -12, and -14 all had apparent catalytic efficiencies on the same order of 10^5 M^-1s^-1.; apparent catalytic efficiency (ALU30-14): The authentic peptide Alu30-19, as well as the top cleaved peptides Alu30-8,-9, -12, and -14 all had apparent catalytic efficiencies on the same order of 10^5 M^-1s^-1.; apparent catalytic efficiency (ALU30-9): The authentic peptide Alu30-19, as well as the top cleaved peptides Alu30-8,-9, -12, and -14 all had apparent catalytic efficiencies on the same order of 10^5 M^-1s^-1.; apparent catalytic efficiency (ALU30-8): The authentic peptide Alu30-19, as well as the top cleaved peptides Alu30-8,-9, -12, and -14 all had apparent catalytic efficiencies on the same order of 10^5 M^-1s^-1.; apparent catalytic efficiency (ALU30-12): The authentic peptide Alu30-19, as well as the top cleaved peptides Alu30-8,-9, -12, and -14 all had apparent catalytic efficiencies on the same order of 10^5 M^-1s^-1.
Factor Xa, recombinant human	all other peptides bearing a CTSL1_1 motif were cleaved by Factor Xa at either ALF|KSSFP (SEQ ID NO: 198) or ALFKS|SFP (SEQ ID NO: 198)	the only library peptide with significant cleavage was Alu30-5, cleaved at the CTSL1_1 motif ALFKS|SFP (SEQ ID NO: 198), upstream of a FAPα_1 motif			all other peptides bearing a CTSL1_1 motif were cleaved by Factor Xa at either ALF|KSSFP (SEQ ID NO: 198) or ALFKS|SFP (SEQ ID NO: 198)	all other peptides bearing a CTSL1_1 motif were cleaved by Factor Xa at either ALF|KSSFP (SEQ ID NO: 198) or ALFKS|SFP (SEQ ID NO: 198)	all other peptides bearing a CTSL1_1 motif were cleaved by Factor Xa at either ALF|KSSFP (SEQ ID NO: 198) or ALFKS|SFP (SEQ ID NO: 198)	all other peptides bearing a CTSL1_1 motif were cleaved by Factor Xa at either ALF|KSSFP (SEQ ID NO: 198) or ALFKS|SFP (SEQ ID NO: 198)	all other peptides bearing a CTSL1_1 motif were cleaved by Factor Xa at either ALF|KSSFP (SEQ ID NO: 198) or ALFKS|SFP (SEQ ID NO: 198)	all other peptides bearing a CTSL1_1 motif were cleaved by Factor Xa at either ALF|KSSFP (SEQ ID NO: 198) or ALFKS|SFP (SEQ ID NO: 198)	all other peptides bearing a CTSL1_1 motif were cleaved by Factor Xa at either ALF|KSSFP (SEQ ID NO: 198) or ALFKS|SFP (SEQ ID NO: 198)	all other peptides bearing a CTSL1_1 motif were cleaved by Factor Xa at either ALF|KSSFP (SEQ ID NO: 198) or ALFKS|SFP (SEQ ID NO: 198)	all other peptides bearing a CTSL1_1 motif were cleaved by Factor Xa at either ALF|KSSFP (SEQ ID NO: 198) or ALFKS|SFP (SEQ ID NO: 198)		Peptide Alu30-19 with this motif was completely degraded before the 5 min time point.	all other peptides bearing a CTSL1_1 motif were cleaved by Factor Xa at either ALF|KSSFP (SEQ ID NO: 198) or ALFKS|SFP (SEQ ID NO: 198)	The peptide with the motif CTSL1_2 was cleaved at the lowest efficiency.	all other peptides bearing a CTSL1_1 motif were cleaved by Factor Xa at either ALF|KSSFP (SEQ ID NO: 198) or ALFKS|SFP (SEQ ID NO: 198)	all other peptides bearing a CTSL1_1 motif were cleaved by Factor Xa at either ALF|KSSFP (SEQ ID NO: 198) or ALFKS|SFP (SEQ ID NO: 198)	
Thrombin, recombinant human	the peptides Alu30-12, Alu30-13 and Alu30-15, with MMP14_1 motifs in combination with ADAM17_2 and CTSL1_1, were cleaved at lower efficiency by thrombin	Thrombin showed higher activity than Factor Xa, and it cleaved each of the 30-mer peptides.	Alu30-4 was also an efficient substrate	The peptides Alu30-1 and Alu30-3 were the most rapidly cleaved in the library	the peptides Alu30-12, Alu30-13 and Alu30-15, with MMP14_1 motifs in combination with ADAM17_2 and CTSL1_1, were cleaved at lower efficiency by thrombin	Thrombin showed higher activity than Factor Xa, and it cleaved each of the 30-mer peptides.	Thrombin showed higher activity than Factor Xa, and it cleaved each of the 30-mer peptides.	Thrombin showed higher activity than Factor Xa, and it cleaved each of the 30-mer peptides.	the CTSL1_2 motif had lower cleavage activity than did the CTSL1_1 motif (peptides Alu30-18 vs Alu30-6)	The two alternate ADAM17 motifs were cleaved with similar efficiency (peptides Alu30-17 vs Alu30-9).	The peptides Alu30-1 and Alu30-3 were the most rapidly cleaved in the library	Thrombin showed higher activity than Factor Xa, and it cleaved each of the 30-mer peptides.	the peptides Alu30-12, Alu30-13 and Alu30-15, with MMP14_1 motifs in combination with ADAM17_2 and CTSL1_1, were cleaved at lower efficiency by thrombin	The peptide Alu30-2, bearing two MMP14_1 motifs, was less susceptible to thrombin	Thrombin showed higher activity than Factor Xa, and it cleaved each of the 30-mer peptides.	The two alternate ADAM17 motifs were cleaved with similar efficiency (peptides Alu30-17 vs Alu30-9).	the CTSL1_2 motif had lower cleavage activity than did the CTSL1_1 motif (peptides Alu30-18 vs Alu30-6)	Thrombin showed higher activity than Factor Xa, and it cleaved each of the 30-mer peptides.	Thrombin showed higher activity than Factor Xa, and it cleaved each of the 30-mer peptides.	
